Reference: US11499162B2, “Plants having increased tolerance to herbicides” (BASF SE, priority 2016, dated 2022)

B1: Y93L: mutated TriA variant of SEQ ID NO: 2 (protein)
chain: MQTLSIQHGTLVTMDQYRRVLGDSWVHVQDGRIVALGVHAESVPPPADRVIDARGKVVLPGFINAHTHVNQILLRGGPSHGRQLYDWLFNVLLPGQKAMRPEDVAVAVRLYCAEAVRSGITTINDNADSAIYPGNIEAAMAVYGEVGVRVVYARMFFDRMDGRIQGYVDALKARSPQVELCSIMEETAVAKDRITALSDQYHGTAGGRISVWPAPAITPAVTVEGMRWAQAFARDRAVMWTLHMAESDHDERLHWMSPAEYMECYGLLDERLQVAHCVYFDRKDVRLLHRHNVKVASQVVSNAYLGSGVAPVPEMVERGMAVGIGTDDGNCNDSVNMIGDMKFMAHIHRAVHRDADVLTPEKILEMATIDGARSLGMDHEIGSIETGKRADLILLDLRHPQTTPHHHLAATIVFQAYGNEVDTVLIDGNVVMENRRLSFLPPERELAFLEEAQSRATAILQRANMVANPAWRSL
modifications: Pseudomonas
B2: N70VQ71V: mutated TriA variant of SEQ ID NO: 2 (protein)
chain: MQTLSIQHGTLVTMDQYRRVLGDSWVHVQDGRIVALGVHAESVPPPADRVIDARGKVVLPGFINAHTHVVVILLRGGPSHGRQLYDWLFNVLYPGQKAMRPEDVAVAVRLYCAEAVRSGITTINDNADSAIYPGNIEAAMAVYGEVGVRVVYARMFFDRMDGRIQGYVDALKARSPQVELCSIMEETAVAKDRITALSDQYHGTAGGRISVWPAPAITPAVTVEGMRWAQAFARDRAVMWTLHMAESDHDERLHWMSPAEYMECYGLLDERLQVAHCVYFDRKDVRLLHRHNVKVASQVVSNAYLGSGVAPVPEMVERGMAVGIGTDDGNCNDSVNMIGDMKFMAHIHRAVHRDADVLTPEKILEMATIDGARSLGMDHEIGSIETGKRADLILLDLRHPQTTPHHHLAATIVFQAYGNEVDTVLIDGNVVMENRRLSFLPPERELAFLEEAQSRATAILQRANMVANPAWRSL
modifications: Pseudomonas
B3: D328G: mutated TriA variant of SEQ ID NO: 2 (protein)
chain: MQTLSIQHGTLVTMDQYRRVLGDSWVHVQDGRIVALGVHAESVPPPADRVIDARGKVVLPGFINAHTHVNQILLRGGPSHGRQLYDWLFNVLYPGQKAMRPEDVAVAVRLYCAEAVRSGITTINDNADSAIYPGNIEAAMAVYGEVGVRVVYARMFFDRMDGRIQGYVDALKARSPQVELCSIMEETAVAKDRITALSDQYHGTAGGRISVWPAPAITPAVTVEGMRWAQAFARDRAVMWTLHMAESDHDERLHWMSPAEYMECYGLLDERLQVAHCVYFDRKDVRLLHRHNVKVASQVVSNAYLGSGVAPVPEMVERGMAVGIGTDGGNCNDSVNMIGDMKFMAHIHRAVHRDADVLTPEKILEMATIDGARSLGMDHEIGSIETGKRADLILLDLRHPQTTPHHHLAATIVFQAYGNEVDTVLIDGNVVMENRRLSFLPPERELAFLEEAQSRATAILQRANMVANPAWRSL
modifications: Pseudomonas
B4: Y93F: mutated TriA variant of SEQ ID NO: 2 (protein)
chain: MQTLSIQHGTLVTMDQYRRVLGDSWVHVQDGRIVALGVHAESVPPPADRVIDARGKVVLPGFINAHTHVNQILLRGGPSHGRQLYDWLFNVLFPGQKAMRPEDVAVAVRLYCAEAVRSGITTINDNADSAIYPGNIEAAMAVYGEVGVRVVYARMFFDRMDGRIQGYVDALKARSPQVELCSIMEETAVAKDRITALSDQYHGTAGGRISVWPAPAITPAVTVEGMRWAQAFARDRAVMWTLHMAESDHDERLHWMSPAEYMECYGLLDERLQVAHCVYFDRKDVRLLHRHNVKVASQVVSNAYLGSGVAPVPEMVERGMAVGIGTDDGNCNDSVNMIGDMKFMAHIHRAVHRDADVLTPEKILEMATIDGARSLGMDHEIGSIETGKRADLILLDLRHPQTTPHHHLAATIVFQAYGNEVDTVLIDGNVVMENRRLSFLPPERELAFLEEAQSRATAILQRANMVANPAWRSL
modifications: Pseudomonas
B5: F89AL92AY93L: mutated TriA variant of SEQ ID NO: 2 (protein)
chain: MQTLSIQHGTLVTMDQYRRVLGDSWVHVQDGRIVALGVHAESVPPPADRVIDARGKVVLPGFINAHTHVNQILLRGGPSHGRQLYDWLANVALPGQKAMRPEDVAVAVRLYCAEAVRSGITTINDNADSAIYPGNIEAAMAVYGEVGVRVVYARMFFDRMDGRIQGYVDALKARSPQVELCSIMEETAVAKDRITALSDQYHGTAGGRISVWPAPAITPAVTVEGMRWAQAFARDRAVMWTLHMAESDHDERLHWMSPAEYMECYGLLDERLQVAHCVYFDRKDVRLLHRHNVKVASQVVSNAYLGSGVAPVPEMVERGMAVGIGTDDGNCNDSVNMIGDMKFMAHIHRAVHRDADVLTPEKILEMATIDGARSLGMDHEIGSIETGKRADLILLDLRHPQTTPHHHLAATIVFQAYGNEVDTVLIDGNVVMENRRLSFLPPERELAFLEEAQSRATAILQRANMVANPAWRSL
modifications: Pseudomonas
B6: Y85LL92AY93V: mutated TriA variant of SEQ ID NO: 2 (protein)
chain: MQTLSIQHGTLVTMDQYRRVLGDSWVHVQDGRIVALGVHAESVPPPADRVIDARGKVVLPGFINAHTHVNQILLRGGPSHGRQLLDWLFNVAVPGQKAMRPEDVAVAVRLYCAEAVRSGITTINDNADSAIYPGNIEAAMAVYGEVGVRVVYARMFFDRMDGRIQGYVDALKARSPQVELCSIMEETAVAKDRITALSDQYHGTAGGRISVWPAPAITPAVTVEGMRWAQAFARDRAVMWTLHMAESDHDERLHWMSPAEYMECYGLLDERLQVAHCVYFDRKDVRLLHRHNVKVASQVVSNAYLGSGVAPVPEMVERGMAVGIGTDDGNCNDSVNMIGDMKFMAHIHRAVHRDADVLTPEKILEMATIDGARSLGMDHEIGSIETGKRADLILLDLRHPQTTPHHHLAATIVFQAYGNEVDTVLIDGNVVMENRRLSFLPPERELAFLEEAQSRATAILQRANMVANPAWRSL
modifications: Pseudomonas
B7: F89LL92AY93L: mutated TriA variant of SEQ ID NO: 2 (protein)
chain: MQTLSIQHGTLVTMDQYRRVLGDSWVHVQDGRIVALGVHAESVPPPADRVIDARGKVVLPGFINAHTHVNQILLRGGPSHGRQLYDWLLNVALPGQKAMRPEDVAVAVRLYCAEAVRSGITTINDNADSAIYPGNIEAAMAVYGEVGVRVVYARMFFDRMDGRIQGYVDALKARSPQVELCSIMEETAVAKDRITALSDQYHGTAGGRISVWPAPAITPAVTVEGMRWAQAFARDRAVMWTLHMAESDHDERLHWMSPAEYMECYGLLDERLQVAHCVYFDRKDVRLLHRHNVKVASQVVSNAYLGSGVAPVPEMVERGMAVGIGTDDGNCNDSVNMIGDMKFMAHIHRAVHRDADVLTPEKILEMATIDGARSLGMDHEIGSIETGKRADLILLDLRHPQTTPHHHLAATIVFQAYGNEVDTVLIDGNVVMENRRLSFLPPERELAFLEEAQSRATAILQRANMVANPAWRSL
modifications: Pseudomonas
B8: D250S: mutated TriA variant of SEQ ID NO: 2 (protein)
chain: MQTLSIQHGTLVTMDQYRRVLGDSWVHVQDGRIVALGVHAESVPPPADRVIDARGKVVLPGFINAHTHVNQILLRGGPSHGRQLYDWLFNVLYPGQKAMRPEDVAVAVRLYCAEAVRSGITTINDNADSAIYPGNIEAAMAVYGEVGVRVVYARMFFDRMDGRIQGYVDALKARSPQVELCSIMEETAVAKDRITALSDQYHGTAGGRISVWPAPAITPAVTVEGMRWAQAFARDRAVMWTLHMAESDHSERLHWMSPAEYMECYGLLDERLQVAHCVYFDRKDVRLLHRHNVKVASQVVSNAYLGSGVAPVPEMVERGMAVGIGTDDGNCNDSVNMIGDMKFMAHIHRAVHRDADVLTPEKILEMATIDGARSLGMDHEIGSIETGKRADLILLDLRHPQTTPHHHLAATIVFQAYGNEVDTVLIDGNVVMENRRLSFLPPERELAFLEEAQSRATAILQRANMVANPAWRSL
modifications: Pseudomonas
B9: D328A: mutated TriA variant of SEQ ID NO: 2 (protein)
chain: MQTLSIQHGTLVTMDQYRRVLGDSWVHVQDGRIVALGVHAESVPPPADRVIDARGKVVLPGFINAHTHVNQILLRGGPSHGRQLYDWLFNVLYPGQKAMRPEDVAVAVRLYCAEAVRSGITTINDNADSAIYPGNIEAAMAVYGEVGVRVVYARMFFDRMDGRIQGYVDALKARSPQVELCSIMEETAVAKDRITALSDQYHGTAGGRISVWPAPAITPAVTVEGMRWAQAFARDRAVMWTLHMAESDHDERLHWMSPAEYMECYGLLDERLQVAHCVYFDRKDVRLLHRHNVKVASQVVSNAYLGSGVAPVPEMVERGMAVGIGTDAGNCNDSVNMIGDMKFMAHIHRAVHRDADVLTPEKILEMATIDGARSLGMDHEIGSIETGKRADLILLDLRHPQTTPHHHLAATIVFQAYGNEVDTVLIDGNVVMENRRLSFLPPERELAFLEEAQSRATAILQRANMVANPAWRSL
modifications: Pseudomonas
B10: M160G: mutated TriA variant of SEQ ID NO: 2 (protein)
chain: MQTLSIQHGTLVTMDQYRRVLGDSWVHVQDGRIVALGVHAESVPPPADRVIDARGKVVLPGFINAHTHVNQILLRGGPSHGRQLYDWLFNVLYPGQKAMRPEDVAVAVRLYCAEAVRSGITTINDNADSAIYPGNIEAAMAVYGEVGVRVVYARMFFDRGDGRIQGYVDALKARSPQVELCSIMEETAVAKDRITALSDQYHGTAGGRISVWPAPAITPAVTVEGMRWAQAFARDRAVMWTLHMAESDHDERLHWMSPAEYMECYGLLDERLQVAHCVYFDRKDVRLLHRHNVKVASQVVSNAYLGSGVAPVPEMVERGMAVGIGTDDGNCNDSVNMIGDMKFMAHIHRAVHRDADVLTPEKILEMATIDGARSLGMDHEIGSIETGKRADLILLDLRHPQTTPHHHLAATIVFQAYGNEVDTVLIDGNVVMENRRLSFLPPERELAFLEEAQSRATAILQRANMVANPAWRSL
modifications: Pseudomonas

Format: biochemical
Conditions: pH 7.2
Outline: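 TriA variants, N-His-tagged, were expressed in E. coli BL21(DE3) Gold with groEL/groES chaperones and purified by Ni-IDA affinity. Enzyme in 25 mM sodium phosphate pH 7.2 was incubated with azine substrates at 1 nM to 10 nM, 30° C. Products were identified by UPLC-HR-MS.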
With B1 the “Degradation in % of 6-cyclopentyl-N4-(2,3,4,5,6-pentafluorophenyl)-1,3,5-triazine-2,4-diamine” value was 82% and the “Degradation in % of Melamine” value was 100%. For B2, the “Degradation in % of 6-cyclopentyl-N4-(2,3,4,5,6-pentafluorophenyl)-1,3,5-triazine-2,4-diamine” value was 0% and the “Degradation in % of Melamine” value was 0%. In the case of B3, the “Degradation in % of 6-cyclopentyl-N4-(2,3,4,5,6-pentafluorophenyl)-1,3,5-triazine-2,4-diamine” value is reported as 19% and the “Degradation in % of Melamine” value is reported as 0%. For B4, the “Degradation in % of 6-cyclopentyl-N4-(2,3,4,5,6-pentafluorophenyl)-1,3,5-triazine-2,4-diamine” value was 33% and the “Degradation in % of Melamine” value was 98%. In the case of B5, the “Degradation in % of 6-cyclopentyl-N4-(2,3,4,5,6-pentafluorophenyl)-1,3,5-triazine-2,4-diamine” value is reported as 99% and the “Degradation in % of Melamine” value is reported as 7%. With B6 the “Degradation in % of 6-cyclopentyl-N4-(2,3,4,5,6-pentafluorophenyl)-1,3,5-triazine-2,4-diamine” value was 24% and the “Degradation in % of Melamine” value was 0%. In the case of B7, the “Degradation in % of 6-cyclopentyl-N4-(2,3,4,5,6-pentafluorophenyl)-1,3,5-triazine-2,4-diamine” value is reported as 35% and the “Degradation in % of Melamine” value is reported as 0%. In the case of B8, the “Degradation in % of 6-cyclopentyl-N4-(2,3,4,5,6-pentafluorophenyl)-1,3,5-triazine-2,4-diamine” value is reported as 16% and the “Degradation in % of Melamine” value is reported as 0%. In the case of B9, the “Degradation in % of 6-cyclopentyl-N4-(2,3,4,5,6-pentafluorophenyl)-1,3,5-triazine-2,4-diamine” value is reported as 95% and the “Degradation in % of Melamine” value is reported as 5%. With B10 the “Degradation in % of 6-cyclopentyl-N4-(2,3,4,5,6-pentafluorophenyl)-1,3,5-triazine-2,4-diamine” value was 29% and the “Degradation in % of Melamine” value was 100%.
